According to patent publication US20250302974A1, “LECTIN-DRUG CONJUGATES” (UNICHEM LABORATORIES LIMITED, priority 2021, published 2025):

B1: Formula 18: Recombinant lectin of SEQ ID NO 5 conjugated with Tesirine, DAR 1.05 (conjugate)
chain: SYKITVRVYQTNPDAFFHPVEKTVWKYANGGTWTITDDQHVLTMGGSGTSGTLRFHADNGESFTATFGVHNYKRWGDIVTNLAADETGMVINQQYYSQKNREEARERQLSNYQVKNAKGRNFQIVYTEAEGNDLHANLIIGC
modifications: Tesirine conjugate
B2: Formula 19: Recombinant lectin of SEQ ID NO 2 (via Formula C) conjugated with Tesirine, DAR 1.32 (conjugate)
chain: TYKITVRVYQTNPDAFFHPVEKTVWKYANGGTWTITDDQHVLTMGGSGTSGTLRFHADNGESFTATFGVHNYKRWCDIVTNLAADETGMVINQQYYSQKNREEARERQLSNYQVKNAKGRNFQIVYTEAEGNDLHANLIIG
modifications: Tesirine conjugate via Formula C linker
B3: SEQ ID NO: 5: recombinant S. rolfsii lectin variant with T1S, C76G and cysteine added at C terminal end (protein)
chain: B1 chain
modifications: C-terminal cysteine added
notes: recombinant S. rolfsii lectin variant with T1S, C76G and cysteine added at C terminal end

How the values were obtained:
[1] = system: human urinary bladder cancer cell line (T-24); experiment: Cytotoxicity assay, cell titer glow luminescence, 72 h; assay type: cell-based
Procedure: (§1) T-24 Cell line were cultured in McCoy's 5a Medium Modified supplemented with 10% FBS and the PA-1 Cell line was cultured in EMEM Media supplemented with 10% FBS. The assay was performed by plating 5,000 cells/well and incubated at 37° C. overnight. […] Each concentration was added in triplicate and media-only wells used as a control. After incubation for 72 h cell titer glow (Promega) reagent (50 μL) was added to each well and the plates shaken for 5 mins and the luminescence was recorded. Percent viability was determined by dividing luminescence of the treated well by the non-treated well and multiplying by 100. Data was analysed using non-linear regression with a logarithmic scale.
(§2) 5,000 cells/well were plated and incubated at 37° C. overnight. Conjugates/vehicle control dilutions were made in respective media and added to cells. Volume added: 50 uL to each well. Starting treatment concentration was 1 uM for Conjugate of formula 16 and 18, and control SEQ ID NO: 5 alone and 10% for vehicle control (1×PBS with 20% DMA) and then diluted 10-fold down for a total of 11 treatment dilutions. Each concentration was analysed in triplicates. Media-only wells was used as a control to calculate percent viability. Cell titer glow reagent (volume: 50 uL) was added to each well, the plate was shaken for 5 mins and the luminescence was recorded. Drug Treatment Time: 72 hours. Percent viability was calculated by dividing the luminescence signal obtained for each treated well by the untreated well (media-only control) and multiplying by 100.

[2] = system: ovarian cancer cell line (PA-1); experiment: as above; assay type: cell-based; conditions: for activity against PA-1 cell lines (in words): IC50 values in nanomoles
Procedure: as §1, §2

Molecule | IC50 ([1]; 72 h) | activity against T-24 cell lines (in words) ([1]; IC50 values in nanomoles) | IC50 ([2]; 72 h) | activity against PA-1 cell lines (in words) [2] | IC50 ([2]; 72 h, listed as formula 19) | cytotoxic effects below 10 μM concentration ([1]; below 10 μM) | IC50 values, PA-1 Cell line ([2]; 72 h) | cytotoxic effects below 10 μM concentration ([2]; below 10 μM)
B1 | 19.9 nM | potent activity | 1.04 nM | potent activity |  |  |  | 
B2 |  |  | 5.22 nM | potent activity | 5.22 nM |  |  | 
B3 |  |  |  |  |  | does not exhibit major cytotoxic effects | 16 µg/mL | does not exhibit major cytotoxic effects
